In PMC9811728:

Key:
[1] = target: SC-CAT (SpyCatcher fused to the N-terminus of catalase) (Bacillus subtilis strain 168); assay: SEC; elution profiles compared with molecular weight standards
[2] = target: SC-LOX (SpyCatcher fused to the N-terminus of lactate oxidase) (Aerococcus viridans); assay: as above

Substance | stoichiometry N [1] | stoichiometry N [2]
SC-CAT (SpyCatcher fused to the N-terminus of catalase) (enzyme) | 4 | –
SC-LOX (SpyCatcher fused to the N-terminus of lactate oxidase) (enzyme) | – | 4
